In assay [1] the target is T1, Purified recombinant human CD26 (rhDipeptidyl peptidase IV), R&D Systems CAT #1180-SE (human, UniProt P27487 29-766).
T1 construct: Bought recombinant protein; also called hu-CD26; soluble human CD26
Briefly: SPR (Biacore), IgG1. The method, then: Fabs produced in E. coli as described below were diluted in PBS in a concentration of ˜0.5 μM for the assay. A typical recording included a 3 minute period of injection of the Fab followed by a period of 15 minutes of dissociation, and analysis was performed based on the raw data of the binding curves accordingly.
Analyses thereof were performed using Biacore® as described in Example 1, excepting the binding partners were the rhuMAbs noted above.

Assay [2] has as its target T2, human CD26-derived 13 mer peptide 87 (human).
T2 peptide: GTFLAYAQFNDTE
Briefly: peptide microarray. The protocol: The overnight incubation was followed by three washings with each of PBS buffer pH 7.5 and water. The microarrays were then scanned using ArrayWorx-Microarray Scanner.
The SPOT recognition software package ArrayPro was used for data analysis. The mean of signal intensities from 3 identical subarrays on each microarray image was used for data evaluation.

The results in this text go back to patent US20070105771A1 (Y S THERAPEUTICS, published 2007).

T1 sequence (P27487 29-766 limits assumed): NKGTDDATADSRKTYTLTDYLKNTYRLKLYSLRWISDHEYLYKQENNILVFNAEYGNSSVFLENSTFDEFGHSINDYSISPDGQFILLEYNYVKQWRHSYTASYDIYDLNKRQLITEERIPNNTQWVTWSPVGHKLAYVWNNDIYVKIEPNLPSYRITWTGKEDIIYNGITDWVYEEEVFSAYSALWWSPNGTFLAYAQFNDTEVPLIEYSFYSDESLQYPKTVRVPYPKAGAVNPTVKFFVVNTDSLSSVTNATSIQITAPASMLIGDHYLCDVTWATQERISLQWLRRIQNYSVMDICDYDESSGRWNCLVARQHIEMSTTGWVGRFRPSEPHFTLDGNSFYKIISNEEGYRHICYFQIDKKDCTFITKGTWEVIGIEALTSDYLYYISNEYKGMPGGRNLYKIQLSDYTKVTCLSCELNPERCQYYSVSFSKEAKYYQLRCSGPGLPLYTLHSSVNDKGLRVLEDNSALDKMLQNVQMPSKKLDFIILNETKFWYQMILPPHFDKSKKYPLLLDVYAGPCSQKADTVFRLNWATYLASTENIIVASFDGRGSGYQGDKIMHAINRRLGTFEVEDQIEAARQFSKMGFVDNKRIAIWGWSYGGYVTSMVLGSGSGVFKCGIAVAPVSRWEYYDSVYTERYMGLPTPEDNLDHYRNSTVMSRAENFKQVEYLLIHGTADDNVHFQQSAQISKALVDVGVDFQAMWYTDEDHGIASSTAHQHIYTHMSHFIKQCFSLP

B1: rhuMAb 411 (antibody, human IgG1, kappa, V domains shown)
VH: EVQLVESGAGVKQPGGTLRLTCTASGFSLTTYGVHWVRQAPGKGLEWVGVIWGDGRTDYDAAFMSRVTISKDTSKSTVYLQMNSLRAEDTAVYYCMRNRHDWFDYWGQGTTVTVSS
VL: DILLTQSPSSLSATPGERATITCRASQGIRNNLNWYQQKPGQAPRLLIYYSSNLQSGVPSRFSGSGSGTDFTLTISRLQPEDVAAYYCQQSIKLPFTFGSGTKVEIKR
notes: also called X411
One may read the Kd as a measure of binding affinity in units of concentration. On to B1, for which, in assay [1], the “-fold against rhuMAb 409” value worked out at 3.7 and the Kd amounted to 220 pM. In addition, the “Mean Signal Value” in assay [2] was 0.0288.
